{
  "source": "patent US20240209330A1",
  "about": "(10X GENOMICS, published 2024)",
  "binders": {"B1": {"name": "recombinant Phi29 polymerase-SpyCatcher fusion protein (enzyme)", "chain": "KHMPRKMYSCDFETTTKVEDCRVWAYGYMNIEDHSEYKIGNSLDEFMAWVLKVQADLYFHNLKFDGAFIINWLERNGFKWSADGLPNTYNTIISRMGQWYMIDICLGYKGKRKIHTVIYDSLKKLPFPVKKIAKDFKLTVLKGDIDYHKERPVGYKITPEEYAYIKNDIQIIAEALLIQFKQGLDRMTAGSDSLKGFKDIITTKKFKKVFPTLSLGLDKEVRYAYRGGFTWLNDRFKEKEIGEGMVFDVNSLYPAQMYSRLLPYGEPIVFEGKYVWDEDYPLHIQHIRCEFELKEGYIPTIQIKRSRFYKGNEYLKSSGGEIADLWLSNVDLELMKEHYDLYNVEYISGLKFKATTGLFKDFIDKWTYIKTTSEGAIKQLAKLMLNSLYGKFASNPDVTGKVPYLKENGALGFRLGEEETKDPVYTPMGVFITAWARYTTITAAQACYDRIIYCDTDSIHLTGTEIPDVIKDIVDPKKLGYWAHESTFKRAKYLRQKTYIQDIYMKEVDGKLVEGSPDDYTDIKFSVKCAGMTDKIKKEVTFENFKVGFSRKMKPKPVQVPGGVVLVDDTFTIKGGSGGSVTTLSGLSGEQGPSGDMTTEEDSATHIKFSKRDEDGRELAGATMELRDSSGKTISTWISDGHVKDFYLYPGKYTFVETAAPDGYEVATPIEFTVNEDGQVTVDGEATEGDAHT", "notes": "Expressed in E. coli with an amino terminal polyhistidine/SUMO tag (N-His/SUMO); The tag was cleaved with ULP1; also called N-His/SUMO Phi29 polymerase-SpyCatcher fusion protein; Phi29 with K-linker-SpyCatcher003"}},
  "molecular_target": "T1, recombinant Phi29 polymerase-SpyTag fusion protein (Bacillus phage phi29 (Bacteriophage …, UniProt P03680 2-575))",
  "T1 construct": "Expressed in E. coli with an amino terminal polyhistidine/SUMO tag (N-His/SUMO); The tag was cleaved with ULP1; also called N-His/SUMO Phi29 polymerase-SpyTag fusion protein; Phi29 with K-linker-SpyTag003",
  "T1 sequence": "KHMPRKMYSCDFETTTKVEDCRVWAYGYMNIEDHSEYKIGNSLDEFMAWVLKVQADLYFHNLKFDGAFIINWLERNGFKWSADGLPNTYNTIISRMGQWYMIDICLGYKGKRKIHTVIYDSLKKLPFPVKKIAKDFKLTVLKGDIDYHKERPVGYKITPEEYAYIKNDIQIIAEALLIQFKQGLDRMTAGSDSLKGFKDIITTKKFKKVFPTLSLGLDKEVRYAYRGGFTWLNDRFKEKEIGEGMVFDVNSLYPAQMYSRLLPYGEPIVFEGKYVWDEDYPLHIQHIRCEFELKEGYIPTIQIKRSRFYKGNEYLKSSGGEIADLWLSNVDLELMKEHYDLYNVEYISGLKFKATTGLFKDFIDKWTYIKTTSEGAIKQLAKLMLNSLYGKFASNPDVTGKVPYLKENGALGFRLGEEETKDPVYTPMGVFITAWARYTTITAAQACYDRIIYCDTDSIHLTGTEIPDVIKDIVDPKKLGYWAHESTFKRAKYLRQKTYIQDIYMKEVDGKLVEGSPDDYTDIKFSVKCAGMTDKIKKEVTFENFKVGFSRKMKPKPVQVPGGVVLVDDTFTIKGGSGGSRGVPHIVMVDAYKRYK",
  "test": "co-expression in E. coli, nickel purification, SDS-PAGE (covalent SpyCatcher:SpyTag coupling)",
  "from_the_text": "N-His/SUMO recombinant Phi29 polymerase-SpyCatcher fusion protein and recombinant Phi29 polymerase-SpyTag fusion protein were expressed as described in Example 3. The soluble fraction was collected and run on a nickel column. The SDS-PAGE for the various fractions are shown in FIG. 9A (SpyCatcher) and FIG. 9B (SpyTag). The SUMO tag was cleaved using a recombinant Ubl-specific protease 1 (ULP1). Fractions were collected for pre- and post-cleavage of the N-His/SUMO tag, as shown in FIG. 10A (SpyCatcher) and FIG. 10B (SpyTag). Each elution fraction was collected as 1 mL aliquots using an 80-100% gradient of 1 M NaCl.\nWhen the Phi29 polymerase-SpyCatcher fusion protein, the Phi29 polymerase-SpyTag fusion protein were co-expressed in E. coli, a dimer of fusion proteins (e.g., a dimer of Phi29 polymerase-SpyCatcher:Phi29 polymerase-SpyTag; comprising two Phi29 polymerase domains), with an approximate molecular weight of 147.974 kDa, was generated based on the protein coupling between SpyCatcher:SpyTag. (FIG. 10C, lane 3).",
  "data": [
    {"binder": "B1", "values": [
      {"measurement": "binding result", "result": "binds"}
    ]}
  ]
}
